B1: Phospholipid scramblase 4 (Homo sapiens), Q9NRQ2 (parent)
chain: MSGVVPTAPEQPAGEMENQTKPPDPRPDAPPEYNSHFLPGPPGTAVPPPTGYPGGLPMGYYSPQQPSTFPLYQPVGGIHPVRYQPGKYPMPNQSVPITWMPGPTPMANCPPGLEYLVQLDNIHVLQHFEPLEMMTCFETNNRYDIKNNSDQMVYIVTEDTDDFTRNAYRTLRPFVLRVTDCMGREIMTMQRPFRCTCCCFCCPSARQELEVQCPPGVTIGFVAEHWNLCRAVYSIQNEKKENVMRVRGPCSTYGCGSDSVFEVKSLDGISNIGSIIRKWNGLLSAMADADHFDIHFPLDLDVKMKAMIFGACFLIDFMYFERSPPQRSR
B2: Keratin-associated protein 26-1 (Homo sapiens), Q6PEX3 (parent)
chain: MSCPNYCSGNSNSGSLRTSRHIPLTSIDLCPTSVSCGDVLYLPTSSQDHTWVTDNCQETCGEPTSCQPVHCETGNLETSCGSSTAYYVPRPCQGSSFLPASFFSSSCLPVSCRPQRYVSSGCRPLRPLLNSYQPIGDCVPNAYRPQFCLSKSCQPQNLLTSGCQPSSCLAYRPQSLHVVSSSLRPLGPLFSGCQPLTHVFSTCRPSCSGL
partner: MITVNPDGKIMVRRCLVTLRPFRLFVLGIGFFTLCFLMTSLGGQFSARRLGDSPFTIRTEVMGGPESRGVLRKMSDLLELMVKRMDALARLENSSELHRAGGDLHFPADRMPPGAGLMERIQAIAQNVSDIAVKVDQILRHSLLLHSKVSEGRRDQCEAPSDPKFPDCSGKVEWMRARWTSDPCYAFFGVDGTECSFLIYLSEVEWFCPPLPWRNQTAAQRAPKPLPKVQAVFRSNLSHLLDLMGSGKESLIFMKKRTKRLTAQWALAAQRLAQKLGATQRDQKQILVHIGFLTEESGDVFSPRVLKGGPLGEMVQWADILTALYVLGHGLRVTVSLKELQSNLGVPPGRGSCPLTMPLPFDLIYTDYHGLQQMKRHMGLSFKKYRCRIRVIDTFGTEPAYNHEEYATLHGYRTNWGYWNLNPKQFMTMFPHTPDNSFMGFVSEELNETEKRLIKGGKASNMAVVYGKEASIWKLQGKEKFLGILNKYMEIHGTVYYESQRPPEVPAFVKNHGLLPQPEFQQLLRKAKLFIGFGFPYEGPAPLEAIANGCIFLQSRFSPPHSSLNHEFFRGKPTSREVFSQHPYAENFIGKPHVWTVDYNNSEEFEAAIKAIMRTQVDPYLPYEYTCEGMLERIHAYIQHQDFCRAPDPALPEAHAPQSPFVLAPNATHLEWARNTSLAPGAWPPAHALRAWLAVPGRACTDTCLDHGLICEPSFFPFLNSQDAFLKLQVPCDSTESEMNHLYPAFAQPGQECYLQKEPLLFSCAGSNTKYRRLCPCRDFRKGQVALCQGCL
B3: Homeobox protein VENTX (Homo sapiens), O95231 (parent)
chain: MRLSSSPPRGPQQLSSFGSVDWLSQSSCSGPTHTPRPADFSLGSLPGPGQTSGAREPPQAVSIKEAAGSSNLPAPERTMAGLSKEPNTLRAPRVRTAFTMEQVRTLEGVFQHHQYLSPLERKRLAREMQLSEVQIKTWFQNRRMKHKRQMQDPQLHSPFSGSLHAPPAFYSTSSGLANGLQLLCPWAPLSGPQALMLPPGSFWGLCQVAQEALASAGASCCGQPLASHPPTPGRPSLGPALSTGPRGLCAMPQTGDAF
partner: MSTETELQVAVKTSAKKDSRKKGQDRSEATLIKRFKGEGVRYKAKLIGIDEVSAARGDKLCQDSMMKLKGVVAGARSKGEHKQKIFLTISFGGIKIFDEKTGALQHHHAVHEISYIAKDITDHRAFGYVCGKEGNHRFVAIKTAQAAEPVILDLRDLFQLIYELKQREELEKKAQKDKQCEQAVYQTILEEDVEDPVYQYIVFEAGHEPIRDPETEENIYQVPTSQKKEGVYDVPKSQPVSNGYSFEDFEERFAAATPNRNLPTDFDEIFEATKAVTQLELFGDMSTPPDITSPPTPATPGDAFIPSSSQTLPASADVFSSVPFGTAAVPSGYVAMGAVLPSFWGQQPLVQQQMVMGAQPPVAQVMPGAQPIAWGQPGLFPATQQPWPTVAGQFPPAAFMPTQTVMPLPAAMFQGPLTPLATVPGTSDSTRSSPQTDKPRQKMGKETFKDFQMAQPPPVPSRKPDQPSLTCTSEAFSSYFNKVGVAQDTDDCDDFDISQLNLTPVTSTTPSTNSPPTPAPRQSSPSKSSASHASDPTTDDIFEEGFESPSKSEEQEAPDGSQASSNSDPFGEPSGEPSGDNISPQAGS

Variants of: B1
Conditions: with pls1_human PLSCR1, O15162
Chain of pls1_human PLSCR1, O15162 (O15162 whole entry): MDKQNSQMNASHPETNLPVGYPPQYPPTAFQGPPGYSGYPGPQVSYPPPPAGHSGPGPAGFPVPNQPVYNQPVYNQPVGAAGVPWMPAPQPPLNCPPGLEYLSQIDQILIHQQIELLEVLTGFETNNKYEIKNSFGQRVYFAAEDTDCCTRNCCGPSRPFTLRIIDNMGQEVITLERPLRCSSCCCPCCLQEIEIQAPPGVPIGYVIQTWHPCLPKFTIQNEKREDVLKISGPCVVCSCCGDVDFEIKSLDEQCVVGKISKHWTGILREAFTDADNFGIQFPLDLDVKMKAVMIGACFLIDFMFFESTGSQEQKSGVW

Row | effect of a mutation on the interaction | Variant
1 | with no effect | MSGVVPTAPEQPAGEMENQTKPPDPRPDAPPEYNSHFLPGPPGTAVPPPTGYPGGLPMGYYSPQQPSTFPLYQPVGGIHPVRYQPGKYPMPNQSVPITWMPGPTPMANCPPGLEYLVQLDNIHVLQHFEPLEMMTCFETNNRYDIKNNSDQMVYVVTEDTDDFTRNAYRTLRPFVLRVTDCMGREIMTMQRPFRCTCCCFCCPSARQELEVQCPPGVTIGFVAEHWNLCRAVYSIQNEKKENVMRVRGPCSTYGCGSDSVFEVKSLDGISNIGSIIRKWNGLLSAMADADHFDIHFPLDLDVKMKAMIFGACFLIDFMYFERSPPQRSR [I155V]

Variants of: B1
Conditions: with mtus2_human MTUS2, Q5JR59
Chain of mtus2_human MTUS2, Q5JR59 (Q5JR59 whole entry): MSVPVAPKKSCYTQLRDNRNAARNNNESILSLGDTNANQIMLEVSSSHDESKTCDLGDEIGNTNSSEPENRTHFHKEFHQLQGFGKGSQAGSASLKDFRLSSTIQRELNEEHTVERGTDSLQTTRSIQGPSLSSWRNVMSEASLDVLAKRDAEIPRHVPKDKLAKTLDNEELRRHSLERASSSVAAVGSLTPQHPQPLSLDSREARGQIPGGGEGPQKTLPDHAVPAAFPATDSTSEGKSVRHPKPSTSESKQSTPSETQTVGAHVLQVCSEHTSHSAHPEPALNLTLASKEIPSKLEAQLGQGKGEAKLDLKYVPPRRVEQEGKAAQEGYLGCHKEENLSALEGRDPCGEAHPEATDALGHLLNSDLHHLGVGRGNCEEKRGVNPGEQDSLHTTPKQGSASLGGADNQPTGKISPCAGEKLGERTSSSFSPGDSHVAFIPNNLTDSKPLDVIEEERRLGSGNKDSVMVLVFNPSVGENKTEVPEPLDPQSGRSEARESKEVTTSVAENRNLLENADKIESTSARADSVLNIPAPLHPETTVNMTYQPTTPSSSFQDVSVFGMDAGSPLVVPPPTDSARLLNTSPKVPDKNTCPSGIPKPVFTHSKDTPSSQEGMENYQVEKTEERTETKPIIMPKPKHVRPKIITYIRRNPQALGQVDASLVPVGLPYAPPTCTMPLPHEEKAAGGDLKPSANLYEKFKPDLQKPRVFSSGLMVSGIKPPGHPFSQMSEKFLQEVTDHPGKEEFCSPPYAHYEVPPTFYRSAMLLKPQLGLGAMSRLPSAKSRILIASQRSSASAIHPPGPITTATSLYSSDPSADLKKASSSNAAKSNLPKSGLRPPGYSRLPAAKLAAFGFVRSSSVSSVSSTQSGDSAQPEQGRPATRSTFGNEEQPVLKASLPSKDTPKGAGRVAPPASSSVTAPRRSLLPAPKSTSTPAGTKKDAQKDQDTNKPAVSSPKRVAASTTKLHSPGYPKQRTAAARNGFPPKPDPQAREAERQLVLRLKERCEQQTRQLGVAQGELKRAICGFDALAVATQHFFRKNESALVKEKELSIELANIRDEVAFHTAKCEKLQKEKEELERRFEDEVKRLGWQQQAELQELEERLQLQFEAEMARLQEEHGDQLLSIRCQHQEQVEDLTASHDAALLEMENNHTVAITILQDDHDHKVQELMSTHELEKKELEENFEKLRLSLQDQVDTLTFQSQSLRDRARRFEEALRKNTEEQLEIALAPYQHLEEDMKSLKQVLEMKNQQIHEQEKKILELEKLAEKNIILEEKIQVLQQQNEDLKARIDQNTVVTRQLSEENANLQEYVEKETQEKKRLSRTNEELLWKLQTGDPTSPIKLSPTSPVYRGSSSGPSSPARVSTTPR

Row | effect of a mutation on the interaction | Variant
2 | with no effect | MSGVVPTAPEQPAGEMENQTKPPDPRPDAPPEYNSHFLPGPPGTAVPPPTGYPGGLPMGYYSPQQPSTFPLYQPVGGIHPVRYQPGKYPMPNQSVPITWMPGPTPMANCPPGLEYLVQLDNIHVLQHFEPLEMMTCFETNNRYDIKNNSDQMVYVVTEDTDDFTRNAYRTLRPFVLRVTDCMGREIMTMQRPFRCTCCCFCCPSARQELEVQCPPGVTIGFVAEHWNLCRAVYSIQNEKKENVMRVRGPCSTYGCGSDSVFEVKSLDGISNIGSIIRKWNGLLSAMADADHFDIHFPLDLDVKMKAMIFGACFLIDFMYFERSPPQRSR [I155V]

Variants of: B1
Conditions: with nt2na_human NOTCH2NLA

Row | effect of a mutation on the interaction | Variant
3 | with no effect | MSGVVPTAPEQPAGEMENQTKPPDPRPDAPPEYNSHFLPGPPGTAVPPPTGYPGGLPMGYYSPQQPSTFPLYQPVGGIHPVRYQPGKYPMPNQSVPITWMPGPTPMANCPPGLEYLVQLDNIHVLQHFEPLEMMTCFETNNRYDIKNNSDQMVYVVTEDTDDFTRNAYRTLRPFVLRVTDCMGREIMTMQRPFRCTCCCFCCPSARQELEVQCPPGVTIGFVAEHWNLCRAVYSIQNEKKENVMRVRGPCSTYGCGSDSVFEVKSLDGISNIGSIIRKWNGLLSAMADADHFDIHFPLDLDVKMKAMIFGACFLIDFMYFERSPPQRSR [I155V]

Variants of: B2
Conditions: with mgt5b_human MGAT5B

Row | effect of a mutation on the interaction | Variant
4 | with no effect | MSCPNYCSGNSNSGSLRTSRHIPLTYIDLCPTSVSCGDVLYLPTSSQDHTWVTDNCQETCGEPTSCQPVHCETGNLETSCGSSTAYYVPRPCQGSSFLPASFFSSSCLPVSCRPQRYVSSGCRPLRPLLNSYQPIGDCVPNAYRPQFCLSKSCQPQNLLTSGCQPSSCLAYRPQSLHVVSSSLRPLGPLFSGCQPLTHVFSTCRPSCSGL [S26Y]

Variants of: B3
Conditions: with dab1_human DAB1, O75553

Row | effect of a mutation on the interaction | Variant
5 | with no effect | MRLSSSPPRGPQQLSSFGSVDWLSQSSCSGPTHTPRPADFSLGSLPGPGQTSGAREPPQAVSIKEAAGSSNLPAPERTMAGLSKEPNTLRAPRVRTAFTMEQVRTLEGVFQHHQYLSPLERKRLAREMQLSEVQIKTWFQNRRMKHKRQMQDPQLHSPFSGSLHAPPAFYSTSSGLANGLQLLCPWAPLSGPQALMLPPGSFWGLCQVAQEALASAGASCCGQPLASHPPTPGRPSLGPALSTGPRGLCAVPQTGDAF [M251V]
6 | disrupting interaction strength | MRLSSSPPRGPQQLSSFGSVDWLSQSSCSGPTHTPRPADFSLGSLPGPGQTSGAREPPQAVSIKEAAGSSNLPAPERTMAGLSKEPNTLRAPRVRTAFTMEQVRTLEGVFQHHQYLSPLERKRLAREMQLSEVQIKTWFQNRRMKHKRQMQDPQLHSPFSGSLHAPPAFYSTSSGLANGLQLLCPWAPLSGPQALMLPPGSFWGLCQVAQEALASAGASCCGQPLESHPPTPGRPSLGPALSTGPRGLCAMPQTGDAF [A226E]
7 | with no effect | MRLSSSPPRGPQQLSSFGSVDWLSQSSCSGPTHTPRPADFSPGSLPGPGQTSGAREPPQAVSIKEAAGSSNLPAPERTMAGLSKEPNTLRAPRVRTAFTMEQVRTLEGVFQHHQYLSPLERKRLAREMQLSEVQIKTWFQNRRMKHKRQMQDPQLHSPFSGSLHAPPAFYSTSSGLANGLQLLCPWAPLSGPQALMLPPGSFWGLCQVAQEALASAGASCCGQPLASHPPTPGRPSLGPALSTGPRGLCAMPQTGDAF [L42P]

Reference: IntAct's records for PubMed 31515488
